Test results reported in the supplement of paper PMC9112550, “Optimization of the antimicrobial peptide Bac7 by deep mutational scanning” (BMC Biology, 2022).

system: Escherichia coli TOP10; experiment: shrunken log2 fold change of peptide-encoding DNA abundance (4.5 h post-induction vs induction); higher = less antimicrobial activity (less host growth inhibition); conditions: time post-induction: 4.5 h; library: site-saturation at positions 5, 18, 19, 20
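Further: peptides expressed intracellularly from a pBAD plasmid library in pooled LB shake-flask culture, induced with 0.3% L-arabinose, DNA abundance read by NGS, three biological replicates, DESeq2 with apeglm shrinkage.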

Question: With RRIRPRPPRLPRPRPRPAFFPRP as the sequence, how does the “shrunken log2 fold change” value read?
Answer: 0.186

Question: Which “shrunken log2 fold change” value does the source give for RRIRSRPPRLPRPRPRPEGCPRP here?
Answer: 0.0128

Question: Which “shrunken log2 fold change” value does the source give for RRIRMRPPRLPRPRPRPEPHPRP here?
Answer: 1.43

Question: How did the “shrunken log2 fold change” value turn out when RRIRWRPPRLPRPRPRPHCFPRP was run?
Answer: -0.0202

Question: RRIRVRPPRLPRPRPRPKIDPRP was tested. Which “shrunken log2 fold change” value did it give?
Answer: 0.124

Question: For RRIRCRPPRLPRPRPRPSEDPRP, which “shrunken log2 fold change” value is on record?
Answer: -0.112

Question: How did the “shrunken log2 fold change” value turn out when RRIRMRPPRLPRPRPRPYLPPRP was run?
Answer: -0.78

Question: RRIRQRPPRLPRPRPRPDPAPRP was tested. Which “shrunken log2 fold change” value did it give?
Answer: 0.0492

Question: Which “shrunken log2 fold change” value does the source give for RRIRFRPPRLPRPRPRPHFMPRP here?
Answer: -0.538

Question: Which “shrunken log2 fold change” value does the source give for RRIRDRPPRLPRPRPRPQQKPRP here?
Answer: -0.14

Question: How did the “shrunken log2 fold change” value turn out when RRIRTRPPRLPRPRPRPDCKPRP was run?
Answer: -0.126

Question: Which “shrunken log2 fold change” value does the source give for RRIRWRPPRLPRPRPRPQESPRP here?
Answer: 0.00801

Question: With RRIRNRPPRLPRPRPRPCFDPRP as the sequence, how does the “shrunken log2 fold change” value read?
Answer: -0.0482

Question: Which “shrunken log2 fold change” value does the source give for RRIRDRPPRLPRPRPRPDLYPRP here?
Answer: 0.309

Question: For RRIRNRPPRLPRPRPRPYDYPRP, which “shrunken log2 fold change” value is on record?
Answer: -0.129

Question: Which “shrunken log2 fold change” value does the source give for RRIRFRPPRLPRPRPRPYEMPRP here?
Answer: -0.412

Question: For RRIRHRPPRLPRPRPRPDMEPRP, which “shrunken log2 fold change” value is on record?
Answer: -0.336

Question: For RRIRSRPPRLPRPRPRPLEGPRP, which “shrunken log2 fold change” value is on record?
Answer: -0.131

Question: How did the “shrunken log2 fold change” value turn out when RRIRRRPPRLPRPRPRPGMWPRP was run?
Answer: 0.59

Question: With RRIRLRPPRLPRPRPRPGYPPRP as the sequence, how does the “shrunken log2 fold change” value read?
Answer: -0.361

Question: With RRIRWRPPRLPRPRPRPLCYPRP as the sequence, how does the “shrunken log2 fold change” value read?
Answer: 0.0105

Question: With RRIRDRPPRLPRPRPRPTVAPRP as the sequence, how does the “shrunken log2 fold change” value read?
Answer: 1.14

Question: With RRIRTRPPRLPRPRPRPPSKPRP as the sequence, how does the “shrunken log2 fold change” value read?
Answer: -0.326

Question: How did the “shrunken log2 fold change” value turn out when RRIRNRPPRLPRPRPRPLWFPRP was run?
Answer: 0.0185

Question: With RRIRMRPPRLPRPRPRPAHHPRP as the sequence, how does the “shrunken log2 fold change” value read?
Answer: 0.0701

Question: With RRIRERPPRLPRPRPRPSNDPRP as the sequence, how does the “shrunken log2 fold change” value read?
Answer: -0.247

Question: Which “shrunken log2 fold change” value does the source give for RRIRCRPPRLPRPRPRPKENPRP here?
Answer: 0.192

Question: How did the “shrunken log2 fold change” value turn out when RRIRMRPPRLPRPRPRPLDTPRP was run?
Answer: -0.0606

Question: Which “shrunken log2 fold change” value does the source give for RRIRGRPPRLPRPRPRPDMIPRP here?
Answer: 0.531

Question: With RRIRKRPPRLPRPRPRPKVPPRP as the sequence, how does the “shrunken log2 fold change” value read?
Answer: 0.225

Question: With RRIRTRPPRLPRPRPRPGRAPRP as the sequence, how does the “shrunken log2 fold change” value read?
Answer: 0.446

Question: Which “shrunken log2 fold change” value does the source give for RRIRGRPPRLPRPRPRPGFSPRP here?
Answer: 0.644

Question: With RRIRERPPRLPRPRPRPECYPRP as the sequence, how does the “shrunken log2 fold change” value read?
Answer: -0.143

Question: RRIRMRPPRLPRPRPRPAGGPRP was tested. Which “shrunken log2 fold change” value did it give?
Answer: 0.831

Question: For RRIRWRPPRLPRPRPRPQNIPRP, which “shrunken log2 fold change” value is on record?
Answer: -0.882

Question: RRIRARPPRLPRPRPRPTLAPRP was tested. Which “shrunken log2 fold change” value did it give?
Answer: 1.65

Question: For RRIRTRPPRLPRPRPRPGHTPRP, which “shrunken log2 fold change” value is on record?
Answer: -0.342

Question: How did the “shrunken log2 fold change” value turn out when RRIRTRPPRLPRPRPRPFSDPRP was run?
Answer: -0.399

Question: RRIRIRPPRLPRPRPRPANDPRP was tested. Which “shrunken log2 fold change” value did it give?
Answer: -0.135

Question: With RRIRQRPPRLPRPRPRPNYQPRP as the sequence, how does the “shrunken log2 fold change” value read?
Answer: -0.491

Question: How did the “shrunken log2 fold change” value turn out when RRIRHRPPRLPRPRPRPSGPPRP was run?
Answer: 0.082

Question: With RRIRPRPPRLPRPRPRPSVYPRP as the sequence, how does the “shrunken log2 fold change” value read?
Answer: -0.361

Question: Which “shrunken log2 fold change” value does the source give for RRIRHRPPRLPRPRPRPEDCPRP here?
Answer: -0.0178

Question: For RRIRYRPPRLPRPRPRPNGNPRP, which “shrunken log2 fold change” value is on record?
Answer: -0.561

Question: With RRIRERPPRLPRPRPRPNRLPRP as the sequence, how does the “shrunken log2 fold change” value read?
Answer: -0.0671

Question: For RRIRRRPPRLPRPRPRPQLCPRP, which “shrunken log2 fold change” value is on record?
Answer: 0.559

Question: Which “shrunken log2 fold change” value does the source give for RRIRIRPPRLPRPRPRPIGIPRP here?
Answer: -0.0608

Question: Which “shrunken log2 fold change” value does the source give for RRIRYRPPRLPRPRPRPWTHPRP here?
Answer: -0.00149

Question: With RRIRPRPPRLPRPRPRPFKWPRP as the sequence, how does the “shrunken log2 fold change” value read?
Answer: 0.0103

Question: How did the “shrunken log2 fold change” value turn out when RRIRARPPRLPRPRPRPWLYPRP was run?
Answer: -0.0506

Question: With RRIRNRPPRLPRPRPRPVALPRP as the sequence, how does the “shrunken log2 fold change” value read?
Answer: -0.0331

Question: For RRIRQRPPRLPRPRPRPEIIPRP, which “shrunken log2 fold change” value is on record?
Answer: 0.0359

Question: How did the “shrunken log2 fold change” value turn out when RRIRRRPPRLPRPRPRPELNPRP was run?
Answer: 0.312

Question: RRIRVRPPRLPRPRPRPWRHPRP was tested. Which “shrunken log2 fold change” value did it give?
Answer: 0.288

Question: Which “shrunken log2 fold change” value does the source give for RRIRSRPPRLPRPRPRPYAYPRP here?
Answer: -0.315

Question: With RRIRDRPPRLPRPRPRPYMMPRP as the sequence, how does the “shrunken log2 fold change” value read?
Answer: -0.297

Question: RRIRPRPPRLPRPRPRPGGAPRP was tested. Which “shrunken log2 fold change” value did it give?
Answer: 0.47

Question: Which “shrunken log2 fold change” value does the source give for RRIRGRPPRLPRPRPRPYIIPRP here?
Answer: -0.158

Question: RRIRFRPPRLPRPRPRPGKPPRP was tested. Which “shrunken log2 fold change” value did it give?
Answer: -0.0809

Question: RRIRDRPPRLPRPRPRPHMWPRP was tested. Which “shrunken log2 fold change” value did it give?
Answer: 0.0299

Question: With RRIRHRPPRLPRPRPRPVQCPRP as the sequence, how does the “shrunken log2 fold change” value read?
Answer: -0.00186

Question: RRIRTRPPRLPRPRPRPQQEPRP was tested. Which “shrunken log2 fold change” value did it give?
Answer: 0.0173

Question: For RRIRLRPPRLPRPRPRPMVKPRP, which “shrunken log2 fold change” value is on record?
Answer: -0.147

Question: RRIRLRPPRLPRPRPRPAFLPRP was tested. Which “shrunken log2 fold change” value did it give?
Answer: 0.134

Question: How did the “shrunken log2 fold change” value turn out when RRIRSRPPRLPRPRPRPMGMPRP was run?
Answer: -0.366

Question: RRIRNRPPRLPRPRPRPCDLPRP was tested. Which “shrunken log2 fold change” value did it give?
Answer: -0.0345

Question: RRIRDRPPRLPRPRPRPANEPRP was tested. Which “shrunken log2 fold change” value did it give?
Answer: 0.0557

Question: RRIRHRPPRLPRPRPRPGTIPRP was tested. Which “shrunken log2 fold change” value did it give?
Answer: -0.00536

Question: How did the “shrunken log2 fold change” value turn out when RRIRYRPPRLPRPRPRPQNQPRP was run?
Answer: -0.562

Question: Which “shrunken log2 fold change” value does the source give for RRIRRRPPRLPRPRPRPFAHPRP here?
Answer: -0.00279

Question: With RRIRIRPPRLPRPRPRPAMKPRP as the sequence, how does the “shrunken log2 fold change” value read?
Answer: -0.0563

Question: For RRIRARPPRLPRPRPRPSFSPRP, which “shrunken log2 fold change” value is on record?
Answer: -0.134

Question: RRIRIRPPRLPRPRPRPEVFPRP was tested. Which “shrunken log2 fold change” value did it give?
Answer: -0.202

Question: With RRIRRRPPRLPRPRPRPKRGPRP as the sequence, how does the “shrunken log2 fold change” value read?
Answer: 0.44

Question: RRIRCRPPRLPRPRPRPKGAPRP was tested. Which “shrunken log2 fold change” value did it give?
Answer: 0.492
